According to the nanobody polyreactivity screen of Harvey et al. (2022):

Assay: yeast display, Sf9 membrane polyspecificity reagent, FACS + sequencing; frameworks hold sequencing errors
Summary of the method: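 Nanobodies came from a synthetic yeast display library in Saccharomyces cerevisiae BJ5465, induced with galactose for 36–48 hours and stained for 1 hour at 4 °C with 10% biotinylated, detergent-solubilized Sf9 membrane reagent. Cells were enriched on streptavidin microbeads and then FACS-sorted, with low and high (top ~1%) gates set on anti-HA fluorescence for expression and streptavidin fluorescence for reagent binding. Each polyreactivity label reflects the gate a clone came from. Genes were amplified by colony PCR, sequenced by MiSeq 2 × 250 and filtered by CDR length.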

Sequence	polyreactivity (PSR sort gate)
QVQLVESGGGLVQAGGSLRLSSAASGRIFPGYAMGWYRQAPGKEREFVAAITRSGGRTYYADSVKGRFTISRDNAKNTVYVQMNSLKPEDTAVYYCNRVYEYWSEYDYWGQGTQVTVSS	high polyreactivity
QVQLVESGGGLVQAGGSLRLSCAASGSTFVGYAMGWYRQAPGKERELVASITRRGGSTYYADSVKGRFTISRDNAKNTVYLQMNSLKPEDTAVYYCATPLYKTATWRAYEYWGQGTQVTVSS	high polyreactivity
QVQLVESGGGIVQAGGSLRLSCAASGIIFKYYAMGWYRQAPGKERELVAAISRIGGSTHYADSVKGRFTISRDNAKYTVYLQMNSLKPEDTAVSYCAARVLGRPLYFIYDYWGQGTQVTVSS	high polyreactivity
QVQLVESGGGLVQAGGSLRLSCAASGFIFYSNAMGWYRPAPGKERELVAAISWGGGRTYYADSVKGRFTISRDNAKNTVYLQMNSLKPEDTAVYYCAAAGYHSGKGGGYWGQGTQVTVSS	high polyreactivity
QVHLVESGGGLVQAGGSLRLSCAATGSTISRYAMGWYRPAPGKERELVAAISWGGNTYYADSVKGRFTISRDNAKNTVYLQMNSLKPEDTAVYYCNRYSKLYNTMDYWGQGTQVTVSS	high polyreactivity
QVQLVESGGGLVQAGGSLRLSCAASGRTFRRYAMGWYRQAPGKERELVAVISRGGSTHYADSVKGRFTISRDNAKNTVYLQMNSLKPEDTAVYYCNAVVSVYTQDLDYWGQGTQVTVSS	high polyreactivity
QVQLVESGGGLVQEGGSLRLSCAASGSTFTYNDMGRYRQAPGKERELVAAITDSDGITYYADSVKGRFTISRDNAKNTVYLQMHSLKPEDTAVSYCAAYYYGSVAQDREYWGQGTQVTVSS	high polyreactivity
QVQLVESGGGLVQAGGSLRLSCAASGIIFDRYAMGWYRQAPGKERELVAAITRSGGRTYYADSVKGRFTISRDNAKNTVYLQMNSLKPEDTAVYYCNAYRSALYPPEYDYWGQGTQVTVSS	high polyreactivity
QVQLVESGGGLVQAGGSLRLSCAASGSIFGGYSMGWYRQAPGKEMELVARISSGGSTYYADSVKGRFTISRDNAKNTVYLQMNSLKQEDTAVYYCNAKTYTWWGLYEYWGQGTQVTVSS	high polyreactivity
QVQLVESGGGLVQAGGILRLSCAAPGSTFRKCAMGWYRQAPGKERELVAAISRGGTSTYYADSVKGRFTISRDNAKNTVYLQMNSLKPEDTAVYSCRYFRYSYGTKYDYWGQGTQVTVSS	high polyreactivity
QVQLVESGGGLVQAGGSLRLSCAASGFSIYRNSMGWYRPAPGKERELVAGISSGGSTNYADSVKGRFTISRDNAKNTVYLQMNSLKPEDTAVYYCATRVYALWFGRYDYWGQGTQVTVSS	high polyreactivity
QVQLVESGGGLVQAGGSLRLSCAASGSIFYWYAMGWYRQAPGKERELVAAISSGGSTNYADSVKGRFTISRDNAKNTVYLQMNSLKPEDTAVYYCNADVPVRYGPIYFRRLDYWGQGTQVTVSS	low polyreactivity
QVQLVESGGGLVQAGGSLRLICAASGIILYSYAMGWYRQAPGKERELVAAISRRGTSTFYADSVKGRFTISRDNAKNTVYLQMNSLKPEDTAVYYCAADFYTNHYDYWGQGTQVTVSS	high polyreactivity
QVQLVESRGVLVQAGGSLRLSCAASGSTFTGYAMGWYRQAPGKERELVAGITGSGGSTYYADSVMGRFTISRDNAKITVYFQMNSLKPVDTAVYYCAAACWYHYVWLDYFWGQGTQVTVSS	low polyreactivity
QVQLVESGGGLVQAGGSLRITCAASGSTFYRNAMGWYRQAPGKERELVAALSRGGSTYYADSVKGRFTISRDNAKNTVYLQMNSLKPEDSAVYYCAARYYSYQYGRHTRYQSVYWGQGTQVTVSS	high polyreactivity
QVQLVESGGGLVQAGGSLRLTCAASGSTFWDNTMGWYRQAPGKDRELVAGITGGGNTKYADSVKGRFTISRDNAKNTVYLQMNSLKPEDTAVYYCAAERLRGYRGVRGYYGYYYWGQGTQVTVSS	high polyreactivity
QVQLVESGGGLVQAGGSLRLSCAASGRIFRVYAMGWYRQAPGKERELVAAINRSGGTTYYADSVKGRFTISRDNAKHTVYLQMNSLKPEDTAVYYCNAPVRRDVAYGYWGQGTQVTVSS	high polyreactivity
QVQLVESGGGLVQAGGSLRLSCAASGGIFSSYAMGWYRQAPGKERELVASISRRGTSTYYADSVKGRFTISRDNAKNTVYLQMNSLKPEDTAVYYCAAGTKYTSAVHFYYWGQGTQVTVSS	high polyreactivity
QVQLVESAGGIVQAGGSLRLSCAASGFTFSRYAKGWNRPEPGKEREWVAAMTSSGGSTYYADSVKGRFTISRDNAKNTVYLQMNSLKPEDTAVYYCNARASGRTYRVDYWGQGTQVTVSS	high polyreactivity
QVQLVESGGGLVQAGGSLRLRCAASGSIFNSYAMGWSRQAPGKERELVAAISIRGTRTYYADSVKGRFTISRDNAKNTVYLQMNSLKPEDTAVYYCAADASYTEGMDYWGQGTQVTVSS	high polyreactivity
QVQLVESGGGLVQAGGSLRLSCAASGRTFGWYAMGWYRQAPGKERELVAAINNSGDITYYADSVKGRFTISRDNAKNTVYLQMNRLKPEDTAVYYCAKDNGRAYFGPSPYDYWGQGTQVTVSS	low polyreactivity
QVQLVESGGGLVQAGGSLRLSCAASGFIFRTYAMGWYRQAPGKERELVAAISGTTGSTYYADSVKGRFTISRDNAKNTVYLQMNSLKPEDTAVYFCAADYYWYIRYEYWGQGSQVTVSS	low polyreactivity

Sequence	polyreactivity (PSR sort gate)
QVQLVESGGGLVQAGGSLRLSCAASGFTFRSYAMGWYRQAPGKERELVASISWSGTSTYYADSVKGRFTISRDNAKNTVYLQMNSLKPEDTAVYYCNKYPSFYGAGYYWGQGTQVTVSS	high polyreactivity
QVQLVESGGGLVQAGGSLRLSCAASGRIFYYYTMGWYRQAPGKERELVAAITSNGGSTYYADSVKGRFTISRDNAKNTVYLQMNSLKPEDTAVYYCAADSYSYRYYYWGQGTQVTVSS	high polyreactivity
QVQLVESGGGLVQAGGSLRLSCAASGRIFGPYAMGWYRQAPGKERELVAAISFSGSGTYYADSVKGRFTISRDNAKNTVYFQMNSLKPEDTAVYYCAATSRKIVAYDHDYWGQGTQVTVSS	low polyreactivity
QVQLVESGGGLVQAGGSLRLSCAASGSIFVPYAMGWYRQAPGKERELVAAISSGGSTNYADSVKGRFTISRDNAKNTVYLQMNSLKPEDTAVYYCNADYSVYIIADEYDYWGQGTQVTVSS	low polyreactivity
QVQLVESGGGLVQAGGSLRLSWAASGNIFLYYAMGWYRQAPGKERELVPDIDSSGASTYYADSVKGRFTISRDNAKNTVYLQMNSLKPEDTAVYYCAAEFHWWYAGDDYGYWGQGTQVTVSS	low polyreactivity
QVQLVESGGGLVQAGGSLRLSCAASGLIFAWYAMGWYRQAPGKERELVATISWNGDRTYYADSVKGRFTISRDNAKNTVYLQMNSLKPEDTAVYYCAARFGSGFNYWGQGTQVTVSS	high polyreactivity
QVQLVESGGGLVQAGGSLRLSCAASGRTFNFNVMGWYRQAPGKESQLVAAISKSTGSTFYADSVKGRFTISRDNAKNTVYLQMNSLKPEDTAVYYCNAVRCYGSGRGYGYCGQGTQVTVSS	high polyreactivity
QVQLVESGGGLVQAGGSLRLSSAASGRIFLLNAMGWYRQAPGKERELVADISFNGGSTYYADSVKGRFTISRDNAKNSVYLQMNSLKPEDTAVYYCAVGSFGVSAYSYYYWGQGTQVTVSS	low polyreactivity
QVQLVESGGGLVQAGGSLRLSCAASGSIFKRNAMGWYRQAPGKERQLVASISWSGSRTYYADSVKGRFTISRDNAKNTVYLQMISLKPEDTAVYYCARRIYGGHPSQSTQGDFYYWGQGTQVTVSS	high polyreactivity
QVQLVESGGGLVQAGGSLRLSCAPSGRTFWTNAMGWYRQAPGKERELVAAIRNSGGRTYYADSVKGRFTISRDNAKNTVFLQMNSLKPEDSAVYYCNARSSIRPRQGGYEHWGQGTQVTVSS	low polyreactivity
QVQLVESGGGLVQAGGSLRLSCASSGRTIGVYAMGWYRQAPGKERELVAAISWSGGTTYYADSVKGRFTISRDNAKNTVYLQMNSLKPEDTAVYYCAADSYTEVDYWGQGTQVTVSS	low polyreactivity
QVHLVESGGGLVQAGGSLRLSCAASGITFRFNAMGLSRQAPGKEMEFVAAITYSGDSTYYADSLKVRFTISRDNAKNSVYLHLKSVKPEDTAVYYCAAEYYAISRRIFYYWGQGTQVTVSS	low polyreactivity
QVQLVESGGGLVQAGCSLRLSCAASGSIFGFYAMGWYRQAPGKERELVATIRSSGGNTYYADSVKGRFTISRDNAKNTVYLEMNSLKPEDTGVFYCAASFLIRAYVDRNDYWGLGTQVTVSS	low polyreactivity
QVQLVESGGGLVQAGGSLRLNCAASGGIFAYNAMGWYRQAPGKEMELVAAITYGGGSTYYADSVKGRFTISRDNAKNTVYLQMNSLKPEDTAVYYCATRGHYHAFYYTYPRYDSWGQGTQVTVSS	low polyreactivity
QVQLVESGGGLVQAGGSLRISCAASGSTFWGYAMGWYRQAPGKERELVATINQSAGSTYYADSVKGRFTISRDNAKNTVYLQMNSLKPEDTAVYYCAAEARVQFSYDYWGQGTQVTVSS	low polyreactivity
QVQLVESGGGLVQAGGSLRLSCAASGSTIPRHAMGWYRQAPGKERELVAAITSGGSTNYADSVKGRFTISRDNAKNTVYLQMNSLKPEDTAVYYCAADVIVRVYYYYYVLMDYWGQGTQVTVSS	low polyreactivity
QVHLVESGGGLVQAGGSLRLSCAASGSIFYYNAMGWYRQAPGKERELVAAITSGDSTNYADSVKGRFTISRDNAKNTVYLQMNSLKPEDTAVYYCNTDGLVRNGPFYSWGQGTQVTVSS	low polyreactivity
QVQLVESGGGIVQAGGSLRLSCAASGSTFNDNAMGWYRQAPGNERELVAAITGGGGRTYYADSVKGRFTISRDNAKNTVYLQMNSLKPEATAVYYCNRGATFEYWGHGTQVTVSS	low polyreactivity
QVQLVESGGGLVQAGGSLRLSCAASGSISKINAMGWYRQAPGKERELVAAINTGDSTYYADSVKGRFTISRDNAKNTVYLQMNCLKPEDTAVYYCAAEGSPTGYDYWGQGTQVTVSS	low polyreactivity
QVQLVESGGGLVQAGGSLRLSCAASGSTFANNAMGWYRQAPGKERELVASITTDGSTNYADSVKGRFTIARDNAKNTVYLQMNSLKPEDTAVYYGAADYHTPSSFAPIELYDYWGQGTQVTVSS	low polyreactivity
QVQLVESGVGLVQAGGSLRLSCAASGLIFQGYAMGWYTQAPGKERELVAAITLSGGSTYYADSVKGRFTISRDNAKITDYLLMNSLKPEDTAVYYCNAYYPDEPSLYDYWGQGTQVTVSS	low polyreactivity
